Patent US20190271021A1 (Hoffmann-La Roche, published 2019)

B1: pre-pro-BDNF(-RGD)_(G4S)6GG_VH<IGF-1R>-CH1-His6 with anti-IGF-1R antibody light chain (other)
heavy: HSDPARRGELSVCDSISEWVTAADKKTAVDMSGGTVTVLEKVPVSKGQLKQYFYETKCNPMGYTKEGCRGIDKRHWNSQCRTTQSYVRALTMDSKKRIGWRFIRIDTSCVCTLTIKGGGGSGGGGSGGGGSGGGGSGGGGSGGGGSGGQVELVESGGGVVQPGRSQRLSCAASGFTFSSYGMHWVRQAPGKGLEWVAIIWFDGSSTYYADSVRGRFTISRDNSKNTLYLQMNSLRAEDTAVYFCARELGRRYFDLWGRGTLVSVSSASTKGPSVFPLAPSSKSTSGGTAALGCLVKDYFPEPVTVSWNSGALTSGVHTFPAVLQSSGLYSLSSVVTVPSSSLGTQTYICNVNHKPSNTKVDKKVGSGHHHHHH
light: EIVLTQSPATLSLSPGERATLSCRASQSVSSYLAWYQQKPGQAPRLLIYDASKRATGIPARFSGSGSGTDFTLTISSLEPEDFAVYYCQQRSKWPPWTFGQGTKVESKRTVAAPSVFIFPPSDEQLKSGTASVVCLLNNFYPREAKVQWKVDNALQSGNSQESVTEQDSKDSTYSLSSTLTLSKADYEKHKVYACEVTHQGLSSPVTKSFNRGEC
notes: BDNF part of the entry is the pre-pro precursor
B2: wild-type BDNF (E. coli) (ligand)
chain: HSDPARRGELSVCDSISEWVTAADKKTAVDMSGGTVTVLEKVPVSKGQLKQYFYETKCNPMGYTKEGCRGIDKRHWNSQCRTTQSYVRALTMDSKKRIGWRFIRIDTSCVCTLTIKRGR
notes: No tag, no linker, RGR not deleted; also called wt-BDNF; non-glycosylated mature wild-type BDNF
B3: pre-pro-BDNF(-RGD)_(G4S)4GG_VH<IGF-1R>-CH1-His6 with anti-IGF-1R antibody light chain (other)
heavy: HSDPARRGELSVCDSISEWVTAADKKTAVDMSGGTVTVLEKVPVSKGQLKQYFYETKCNPMGYTKEGCRGIDKRHWNSQCRTTQSYVRALTMDSKKRIGWRFIRIDTSCVCTLTIKGGGGSGGGGSGGGGSGGGGSGGQVELVESGGGVVQPGRSQRLSCAASGFTFSSYGMHWVRQAPGKGLEWVAIIWFDGSSTYYADSVRGRFTISRDNSKNTLYLQMNSLRAEDTAVYFCARELGRRYFDLWGRGTLVSVSSASTKGPSVFPLAPSSKSTSGGTAALGCLVKDYFPEPVTVSWNSGALTSGVHTFPAVLQSSGLYSLSSVVTVPSSSLGTQTYICNVNHKPSNTKVDKKVGSGHHHHHH
light: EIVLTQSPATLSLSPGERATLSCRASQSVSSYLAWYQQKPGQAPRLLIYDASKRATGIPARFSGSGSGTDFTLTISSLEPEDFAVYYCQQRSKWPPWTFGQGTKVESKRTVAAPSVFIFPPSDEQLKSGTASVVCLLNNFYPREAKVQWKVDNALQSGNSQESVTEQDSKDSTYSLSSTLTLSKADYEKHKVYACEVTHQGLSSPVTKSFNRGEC
notes: as for B1
B4: pre-pro-BDNF(-RGR)-T7-His6 (ligand)
chain: HSDPARRGELSVCDSISEWVTAADKKTAVDMSGGTVTVLEKVPVSKGQLKQYFYETKCNPMGYTKEGCRGIDKRHWNSQCRTTQSYVRALTMDSKKRIGWRFIRIDTSCVCTLTIKGSGMASMTGGQQMGHHHHHH
notes: Entry is the pre-pro precursor as expressed (HEK293); values normalized to maturated BDNF; also called pp-BDNF; parental construct
B5: complex of pre-pro-BDNF(-RGD)_(G4S)2GG_VH<IGF-1R>-CH1-His6, anti-IGF-1R antibody light chain and not-fused pre-pro-BDNF(-RGR)-T7-His6 (other)
heavy: HSDPARRGELSVCDSISEWVTAADKKTAVDMSGGTVTVLEKVPVSKGQLKQYFYETKCNPMGYTKEGCRGIDKRHWNSQCRTTQSYVRALTMDSKKRIGWRFIRIDTSCVCTLTIKGGGGSGGGGSGGQVELVESGGGVVQPGRSQRLSCAASGFTFSSYGMHWVRQAPGKGLEWVAIIWFDGSSTYYADSVRGRFTISRDNSKNTLYLQMNSLRAEDTAVYFCARELGRRYFDLWGRGTLVSVSSASTKGPSVFPLAPSSKSTSGGTAALGCLVKDYFPEPVTVSWNSGALTSGVHTFPAVLQSSGLYSLSSVVTVPSSSLGTQTYICNVNHKPSNTKVDKKVGSGHHHHHH
light: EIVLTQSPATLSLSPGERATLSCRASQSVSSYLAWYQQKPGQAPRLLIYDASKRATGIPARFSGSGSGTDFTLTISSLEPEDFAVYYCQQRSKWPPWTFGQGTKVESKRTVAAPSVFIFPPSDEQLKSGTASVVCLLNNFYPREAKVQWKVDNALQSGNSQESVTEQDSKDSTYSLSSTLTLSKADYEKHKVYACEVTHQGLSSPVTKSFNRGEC
chain: HSDPARRGELSVCDSISEWVTAADKKTAVDMSGGTVTVLEKVPVSKGQLKQYFYETKCNPMGYTKEGCRGIDKRHWNSQCRTTQSYVRALTMDSKKRIGWRFIRIDTSCVCTLTIKGSGMASMTGGQQMGHHHHHH
notes: BDNF-Fab fusion co-expressed with light chain and not-fused BDNF; BDNF entries are pre-pro precursors
B6: pre-pro-BDNF(-RGD)_(G4S)2GG_VH<IGF-1R>-CH1-His6 with anti-IGF-1R antibody light chain (other)
heavy: HSDPARRGELSVCDSISEWVTAADKKTAVDMSGGTVTVLEKVPVSKGQLKQYFYETKCNPMGYTKEGCRGIDKRHWNSQCRTTQSYVRALTMDSKKRIGWRFIRIDTSCVCTLTIKGGGGSGGGGSGGQVELVESGGGVVQPGRSQRLSCAASGFTFSSYGMHWVRQAPGKGLEWVAIIWFDGSSTYYADSVRGRFTISRDNSKNTLYLQMNSLRAEDTAVYFCARELGRRYFDLWGRGTLVSVSSASTKGPSVFPLAPSSKSTSGGTAALGCLVKDYFPEPVTVSWNSGALTSGVHTFPAVLQSSGLYSLSSVVTVPSSSLGTQTYICNVNHKPSNTKVDKKVGSGHHHHHH
light: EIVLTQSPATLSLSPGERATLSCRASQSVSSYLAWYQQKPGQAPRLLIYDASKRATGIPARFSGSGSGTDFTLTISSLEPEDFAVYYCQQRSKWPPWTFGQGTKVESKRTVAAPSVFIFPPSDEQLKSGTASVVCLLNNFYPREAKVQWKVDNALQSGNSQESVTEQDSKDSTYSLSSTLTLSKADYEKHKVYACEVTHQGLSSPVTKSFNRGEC
notes: as for B1

Assays:
[1] = target: T1, TrkB-Fc fusion (R&D Systems) (UniProt Q16620 32-430); test: TrkB ELISA, plate coated with TrkB-Fc, detection with anti-BDNF antibody
T1 construct: the ELISA paragraph says only TrkB-Fc fusion (R&D Systems); also called Human Fc-tagged TrkB; not shown: Fc part of the bought fusion
Procedure: The binding properties of BDNF-containing fusion proteins were determined with a TrkB ELISA. Maxisorb plates were coated with 1 μg/mL of a TrkB-Fc fusion (R&D Systems) in PBS overnight at 4° C. After blocking the plate with PBSTC (PBS with 0.05% Tween-20 and 2% Chicken serum (Gibco)) for 1 h at RT and three washes with PBST, BDNF-containing fusion proteins or BDNF alone were added to the wells at concentrations of 15 to 500 ng/mL in PBSTC and incubated for 2 h at RT. After six washes, the wells were incubated with mouse-anti-BDNF antibody (clone 4F11.1A1, 1 μg/mL in PBSTC) and, after further washes, with anti-mouse-HRP antibody (1:10000 in PBSTC), both for 1 h at RT. After three washes with PBST, HRP activity was detected using ABTS substrate and photometric quantification at a wavelength of 492 nm.

[2] = target: T2, human TrkB on CHO cells (CHO-K1-hTrkB/pSRE-Luc) (human, UniProt Q16620 32-822); test: cell-based or functional assay
[3] = target: T2, human TrkB on CHO cells …; test: cell-based or functional assay; remark: listed apart in the source

T1 sequence (Q16620 32-430 limits assumed): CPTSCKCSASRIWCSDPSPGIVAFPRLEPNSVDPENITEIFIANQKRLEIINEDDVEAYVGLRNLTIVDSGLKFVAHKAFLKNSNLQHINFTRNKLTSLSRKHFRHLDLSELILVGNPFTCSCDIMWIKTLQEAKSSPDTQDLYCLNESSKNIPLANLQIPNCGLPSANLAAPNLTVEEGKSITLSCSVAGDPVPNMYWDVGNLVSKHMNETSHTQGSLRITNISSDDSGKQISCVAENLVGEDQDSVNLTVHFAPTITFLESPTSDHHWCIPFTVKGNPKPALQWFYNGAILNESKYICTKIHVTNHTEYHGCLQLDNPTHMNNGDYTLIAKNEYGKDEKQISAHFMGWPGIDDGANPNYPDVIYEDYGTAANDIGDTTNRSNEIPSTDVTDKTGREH
T2 sequence (Q16620 32-822): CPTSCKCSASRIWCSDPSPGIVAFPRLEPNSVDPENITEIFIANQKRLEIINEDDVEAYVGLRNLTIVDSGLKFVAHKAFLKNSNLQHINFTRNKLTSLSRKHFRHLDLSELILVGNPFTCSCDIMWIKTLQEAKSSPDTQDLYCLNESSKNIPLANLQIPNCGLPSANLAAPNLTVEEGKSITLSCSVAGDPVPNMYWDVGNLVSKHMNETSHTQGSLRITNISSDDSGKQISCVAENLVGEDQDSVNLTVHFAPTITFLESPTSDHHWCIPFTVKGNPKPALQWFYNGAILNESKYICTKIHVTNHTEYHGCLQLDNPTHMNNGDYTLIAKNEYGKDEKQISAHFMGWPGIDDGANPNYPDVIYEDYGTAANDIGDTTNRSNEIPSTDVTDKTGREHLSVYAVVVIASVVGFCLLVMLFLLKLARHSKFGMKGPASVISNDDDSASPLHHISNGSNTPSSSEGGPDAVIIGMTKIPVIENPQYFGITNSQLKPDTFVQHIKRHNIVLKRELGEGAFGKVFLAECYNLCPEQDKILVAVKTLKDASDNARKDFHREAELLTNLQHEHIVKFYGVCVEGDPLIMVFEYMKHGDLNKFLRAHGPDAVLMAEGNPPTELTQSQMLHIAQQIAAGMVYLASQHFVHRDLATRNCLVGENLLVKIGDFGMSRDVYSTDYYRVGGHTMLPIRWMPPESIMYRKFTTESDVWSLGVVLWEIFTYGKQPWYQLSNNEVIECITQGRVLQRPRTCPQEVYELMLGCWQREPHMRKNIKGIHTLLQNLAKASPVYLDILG

| Binder | EC50 [1] | BDNF activity in TrkBluciferase assay, EC50 [% or nM] [2] | relative BDNF activity in TrkB luciferase assay, EC50 [%] [3] |
| --- | --- | --- | --- |
| B1 | 18.5 nM |  |  |
| B2 | 5.7 nM | 0.44 nM | 60% |
| B3 | 13.5 nM |  |  |
| B4 | 8.9 nM |  |  |
| B5 | 6.1 nM |  |  |
| B6 | 17 nM |  |  |
